# B1: BBSome complex member BBS2 (Homo sapiens), Q9BXC9 (parent)
# chain: MLLPVFTLKLRHKISPRMVAIGRYDGTHPCLAAATQTGKVFIHNPHTRNQHVSASRVFQSPLESDVSLLSINQAVSCLTAGVLNPELGYDALLVGTQTNLLAYDVYNNSDLFYREVADGANAIVLGTLGDISSPLAIIGGNCALQGFNHEGSDLFWTVTGDNVNSLALCDFDGDGKKELLVGSEDFDIRVFKEDEIVAEMTETEIVTSLCPMYGSRFGYALSNGTVGVYDKTSRYWRIKSKNHAMSIHAFDLNSDGVNELITGWSNGKVDARSDRTGEVIFKDNFSSAIAGVVEGDYRMDGHIQLICCSVDGEIRGYLPGTAEMRGNLMDTSAEQDLIRELSQKKQNLLLELRNYEENAKAELASPLNEADGHRGIIPANTRLHTTLSVSLGNETQTAHTELRISTSNDTIIRAVLIFAEGIFTGESHVVHPSIHNLSSSICIPIVPPKDVPVDLHLKAFVGYRSSTQFHVFESTRQLPRFSMYALTSLDPASEPISYVNFTIAERAQRVVVWLGQNFLLPEDTHIQNAPFQVCFTSLRNGGHLHIKIKLSGEITINTDDIDLAGDIIQSMASFFAIEDLQVEADFPVYFEELRKVLVKVDEYHSVHQKLSADMADHSNLIRSLLVGAEDARLMRDMKTMKSRYMELYDLNRDLLNGYKIRCNNHTELLGNLKAVNQAIQRAGRLRVGKPKNQVITACRDAIRSNNINTLFKIMRVGTASS
# partner: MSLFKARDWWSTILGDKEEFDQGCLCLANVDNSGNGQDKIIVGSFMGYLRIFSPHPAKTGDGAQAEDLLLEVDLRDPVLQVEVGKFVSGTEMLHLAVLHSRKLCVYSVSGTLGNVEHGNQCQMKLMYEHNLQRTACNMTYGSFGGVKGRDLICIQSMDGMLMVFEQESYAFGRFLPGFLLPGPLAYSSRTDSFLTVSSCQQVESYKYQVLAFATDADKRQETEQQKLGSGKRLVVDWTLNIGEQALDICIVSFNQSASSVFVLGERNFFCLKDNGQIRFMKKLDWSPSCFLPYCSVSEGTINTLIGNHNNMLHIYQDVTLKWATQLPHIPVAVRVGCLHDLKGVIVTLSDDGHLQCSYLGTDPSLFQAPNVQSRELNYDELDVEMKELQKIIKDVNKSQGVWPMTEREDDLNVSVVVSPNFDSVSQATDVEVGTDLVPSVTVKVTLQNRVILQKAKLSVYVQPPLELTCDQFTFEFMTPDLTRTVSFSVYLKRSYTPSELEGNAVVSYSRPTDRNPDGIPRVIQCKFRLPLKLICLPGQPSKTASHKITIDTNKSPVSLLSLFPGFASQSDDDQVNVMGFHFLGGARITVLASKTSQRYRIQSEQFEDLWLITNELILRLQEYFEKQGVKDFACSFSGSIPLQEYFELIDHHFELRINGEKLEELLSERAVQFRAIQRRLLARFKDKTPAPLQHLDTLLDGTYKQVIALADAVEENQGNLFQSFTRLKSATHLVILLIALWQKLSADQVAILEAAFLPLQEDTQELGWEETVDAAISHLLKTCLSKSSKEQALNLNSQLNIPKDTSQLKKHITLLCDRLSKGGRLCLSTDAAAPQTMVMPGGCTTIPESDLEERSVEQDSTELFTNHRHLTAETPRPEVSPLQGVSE
# Variants of: B1
# Settings: with pthb1_human BBS9, Q3SYG4
row,Variant,effect of a mutation on the interaction
1,A697E,with no effect
2,A697K,with no effect
3,Q693A,with no effect
4,Q693K,with no effect
5,Q693E,with no effect
6,G670E,with no effect
7,G670A,with no effect
8,G670K,with no effect
9,R699E,with no effect
10,R699K,with no effect
11,R699A,with no effect
12,L654K,with no effect
13,L654A,with no effect
14,L654E,with no effect
15,C662K,with no effect
16,C662A,with no effect
17,C662E,with no effect
18,L669A,with no effect
19,L669E,with no effect
20,L669K,with no effect
21,T639E,with no effect
22,T639A,with no effect
23,T639K,with no effect
24,D700E,with no effect

row,Variant,effect of a mutation on the interaction
1,D700A,with no effect
2,D700K,with no effect
3,K641A,with no effect
4,K641E,with no effect
5,G683K,with no effect
6,G683A,with no effect
7,G683E,with no effect
8,V694A,with no effect
9,V694E,with no effect
10,V694K,with no effect
11,G688E,with no effect
12,G688A,with no effect
13,T696E,with no effect
14,T696A,with no effect
15,T696K,with no effect
16,K673A,with no effect
17,K673E,with no effect
18,L668E,with no effect
19,L668A,with no effect
20,L668K,with no effect
21,C698A,with no effect
22,C698E,with no effect
23,C698K,with no effect
24,N663A,with no effect

row,Variant,effect of a mutation on the interaction
1,N663E,with no effect
2,N663K,with no effect
3,L672A,with no effect
4,L672E,with no effect
5,L672K,with no effect
6,K659A,with no effect
7,K659E,with no effect
8,D636A,with no effect
9,D636K,with no effect
10,D636G,disrupting interaction strength
11,D636E,with no effect
12,R686A,with no effect
13,R686E,with no effect
14,R686K,with no effect
15,K691E,with no effect
16,K691A,with no effect
17,R681E,with no effect
18,R681A,with no effect
19,R681K,with no effect
20,L655K,with no effect
21,L655A,with no effect
22,L655E,with no effect
23,M637A,with no effect
24,M637K,with no effect

row,Variant,effect of a mutation on the interaction
1,M637E,with no effect
2,I695K,with no effect
3,I695A,with no effect
4,I695E,with no effect
5,I702A,with no effect
6,R643E,with no effect
7,R643K,with no effect
8,R643A,with no effect
9,A678E,with no effect
10,A678K,with no effect
11,R652A,with no effect
12,R652K,with no effect
13,R652E,with no effect
14,R684K,with no effect
15,R684A,with no effect
16,R684E,with no effect
17,S642A,with no effect
18,S642K,with no effect
19,S642E,with no effect
20,N651A,with no effect
21,N651K,with no effect
22,N651E,with no effect
23,N664E,with no effect
24,N664A,with no effect

row,Variant,effect of a mutation on the interaction
1,N664K,with no effect
2,Y644K,with no effect
3,Y644A,with no effect
4,Y644E,with no effect
5,M645K,with no effect
6,M645A,with no effect
7,M645E,with no effect
8,N676E,with no effect
9,N676A,with no effect
10,N676K,with no effect
11,L685A,with no effect
12,L685K,with no effect
13,L685E,with no effect
14,V675A,with no effect
15,V675K,with no effect
16,V675E,with no effect
17,M640E,with no effect
18,M640A,with no effect
19,M640K,with no effect
20,V687K,with no effect
21,V687A,with no effect
22,V687E,with no effect
23,E667K,with no effect
24,E667A,with no effect

row,Variant,effect of a mutation on the interaction
1,N671A,with no effect
2,N671E,with no effect
3,N671K,with no effect
4,T666E,with no effect
5,T666K,with no effect
6,T666A,with no effect
7,N692A,with no effect
8,N692K,with no effect
9,N692E,with no effect
10,R661A,with no effect
11,R661K,with no effect
12,R661E,with no effect
13,K638A,with no effect
14,K638E,with no effect
15,A674E,with no effect
16,A674K,with no effect
17,D649K,with no effect
18,D649E,with no effect
19,D649A,with no effect
20,Y648K,with no effect
21,Y648A,with no effect
22,Y648E,with no effect
23,G657K,with no effect
24,G657E,with no effect

row,Variant,effect of a mutation on the interaction
1,G657A,with no effect
2,Q677A,with no effect
3,Q677L,disrupting interaction strength
4,Q677K,with no effect
5,Q677E,with no effect
6,N656A,with no effect
7,N656K,with no effect
8,N656E,with no effect
9,E646K,with no effect
10,E646A,with no effect
11,Y658K,with no effect
12,Y658A,with no effect
13,Y658E,with no effect
14,A701K,with no effect
15,A701E,with no effect
16,L650E,with no effect
17,L650A,with no effect
18,L650K,with no effect
19,Q680K,with no effect
20,Q680E,with no effect
21,Q680A,with no effect
22,I660E,with no effect
23,I660K,with no effect
24,I660A,with no effect

row,Variant,effect of a mutation on the interaction
1,A682K,with no effect
2,A682E,with no effect
3,L647K,with no effect
4,L647E,with no effect
5,L647A,with no effect
6,I679E,with no effect
7,I679K,with no effect
8,I679A,with no effect
9,P690A,with no effect
10,P690E,with no effect
11,P690K,with no effect
12,H665A,with no effect
13,H665K,with no effect
14,H665E,with no effect
15,K689A,with no effect
16,K689E,with no effect
17,D653K,with no effect
18,D653E,with no effect
19,D653A,with no effect

# Source: IntAct's records for PubMed 29039417
